Source: patent US20040191240A1 (published 2004)

Molecular target: T1, amino-terminally FLAG-tagged human p75 (human, UniProt P08138 29-427)
T1 construct: also called FLAG-tagged p75; FLAG-p75; not shown: FLAG tag at the amino terminus
T1 sequence: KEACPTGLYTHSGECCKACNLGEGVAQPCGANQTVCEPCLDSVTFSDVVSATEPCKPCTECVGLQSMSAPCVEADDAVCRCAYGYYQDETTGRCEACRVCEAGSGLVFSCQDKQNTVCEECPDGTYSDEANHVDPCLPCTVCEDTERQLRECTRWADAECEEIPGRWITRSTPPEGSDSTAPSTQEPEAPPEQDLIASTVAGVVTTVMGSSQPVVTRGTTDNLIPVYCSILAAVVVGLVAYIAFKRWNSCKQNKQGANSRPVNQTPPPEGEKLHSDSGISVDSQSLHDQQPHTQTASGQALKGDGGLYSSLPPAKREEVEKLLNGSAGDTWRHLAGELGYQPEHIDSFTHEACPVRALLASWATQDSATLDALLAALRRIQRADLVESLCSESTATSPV
Assay: competition: Pep5 at several concentrations against 1 uM GST-Rho GDI for immunoprecipitated p75

B1: Pep5 (peptide)
peptide: CFFRGGFFNHNPRYC
notes: Chemically synthesized 15-residue peptide; also called peptide ligand to the p75 HD
  binding result: binds
